Laboratory results: PMC3393660, “Structural Interaction and Functional Regulation of Polycystin-2 by Filamin” (PLoS ONE, 2012)

Key:
His-FLNAC [1] = target: T1, His-FLNAC (human, UniProt P21333 2150-2647); assay: pull-down; purified GST fusion protein (2 µg) incubated with purified His-FLN C-terminus (2 µg); 150 mM NaCl, 1.0 mM CaCl2, 50 mM Tris pH 7.5, room temperature; glutathione-agarose beads; immunoblot with anti-His; settings: both partners purified
T1 construct: Filamin-A, human, C-terminus aa 2150-2647; also called His-tagged FLNAC; not shown: His tag, N-terminal, kept
T1 sequence (looked up): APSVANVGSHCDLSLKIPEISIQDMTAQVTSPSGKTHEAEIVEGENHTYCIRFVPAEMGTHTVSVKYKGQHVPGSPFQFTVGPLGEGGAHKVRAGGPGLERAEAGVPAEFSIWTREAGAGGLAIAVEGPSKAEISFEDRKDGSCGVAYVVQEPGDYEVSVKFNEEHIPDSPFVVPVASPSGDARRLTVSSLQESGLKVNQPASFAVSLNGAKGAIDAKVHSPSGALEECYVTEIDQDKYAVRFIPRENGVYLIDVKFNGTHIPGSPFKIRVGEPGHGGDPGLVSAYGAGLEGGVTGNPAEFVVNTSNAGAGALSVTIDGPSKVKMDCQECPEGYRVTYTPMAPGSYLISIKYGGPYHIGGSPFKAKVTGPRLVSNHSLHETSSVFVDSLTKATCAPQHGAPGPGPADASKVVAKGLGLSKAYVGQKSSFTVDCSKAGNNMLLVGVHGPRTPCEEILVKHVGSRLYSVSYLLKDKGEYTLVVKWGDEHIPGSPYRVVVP

His-FLNBC = target: T2, His-FLNBC (human, UniProt O75369 2105-2602); assay: pull-down; pre-cleared E. coli extracts (250 µl) with GST-PC2N or GST-PC2C incubated with purified His-FLN C-terminus (2 µg); 150 mM NaCl, 1.0 mM CaCl2, 50 mM Tris pH 7.5, room temperature; glutathione-agarose beads; immunoblot with anti-His; settings: one partner purified
T2 construct: Filamin-B, human, C-terminus aa 2105-2602; also called His-tagged FLNBC; not shown: His tag, N-terminal, kept
T2 sequence (looked up): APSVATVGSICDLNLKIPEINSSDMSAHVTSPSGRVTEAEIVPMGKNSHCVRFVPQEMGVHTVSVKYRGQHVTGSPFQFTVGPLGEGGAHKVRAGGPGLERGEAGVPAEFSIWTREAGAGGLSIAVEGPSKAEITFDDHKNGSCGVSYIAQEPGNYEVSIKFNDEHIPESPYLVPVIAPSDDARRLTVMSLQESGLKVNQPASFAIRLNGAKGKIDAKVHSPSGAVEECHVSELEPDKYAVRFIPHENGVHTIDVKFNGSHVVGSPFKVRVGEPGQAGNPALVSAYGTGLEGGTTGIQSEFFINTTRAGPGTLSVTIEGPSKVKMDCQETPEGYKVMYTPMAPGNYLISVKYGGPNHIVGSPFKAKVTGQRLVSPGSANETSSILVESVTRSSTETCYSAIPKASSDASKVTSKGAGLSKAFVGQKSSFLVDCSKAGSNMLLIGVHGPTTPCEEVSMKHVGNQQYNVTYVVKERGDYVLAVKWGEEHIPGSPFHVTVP

His-FLNCC = target: T3, His-FLNCC (human, UniProt Q14315 2144-2725); assay: as above; settings: one partner purified
T3 construct: Filamin-C, human, C-terminus aa A2144-P2725; also called His-tagged FLNCC; not shown: His tag, N-terminal, kept
T3 sequence (looked up): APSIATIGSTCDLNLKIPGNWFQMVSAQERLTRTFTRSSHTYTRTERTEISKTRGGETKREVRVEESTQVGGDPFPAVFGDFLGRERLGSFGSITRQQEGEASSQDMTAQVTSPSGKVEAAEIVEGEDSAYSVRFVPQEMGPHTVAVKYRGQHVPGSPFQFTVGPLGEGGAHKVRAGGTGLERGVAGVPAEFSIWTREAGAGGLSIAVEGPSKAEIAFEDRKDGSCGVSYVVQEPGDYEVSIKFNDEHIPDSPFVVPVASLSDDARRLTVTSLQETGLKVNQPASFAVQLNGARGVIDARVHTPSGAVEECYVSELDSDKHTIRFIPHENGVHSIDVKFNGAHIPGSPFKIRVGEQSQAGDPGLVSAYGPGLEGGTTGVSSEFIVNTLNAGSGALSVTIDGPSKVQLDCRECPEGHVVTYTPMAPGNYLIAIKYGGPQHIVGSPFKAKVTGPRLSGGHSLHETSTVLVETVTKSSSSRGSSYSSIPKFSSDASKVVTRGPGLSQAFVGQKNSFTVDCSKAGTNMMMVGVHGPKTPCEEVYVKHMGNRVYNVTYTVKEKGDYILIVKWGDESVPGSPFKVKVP

His-FLNAC [2] = target: T1, His-FLNAC; assay: as above; settings: one partner purified

Measured: binding result

B1: GST-PC2N (domain or fragment, human, UniProt Q13563 1-215, looked up)
chain: MVNSSRVQPQQPGDAKRPPAPRAPDPGRLMAGCAAVGASLAAPGGLCEQRGLEIEMQRIRQAAARDPPAGAAASPSPPLSSCSRQAWSRDNPGFEAEEEEEEVEGEEGGMVVEMDVEWRPGSRRSAASSAVSSVGARSRGLGGYHGAGHPSGRRRRREDQGPPCPSPVGGGDPLHRHLPLEGQPPRVAWAERLVRGLRGLWGTRLMEESSTNREK
notes: Polycystin-2, human, N-terminus PC2N, amino acids 1-215; in pGEX5X; also called GST-tagged PC2N; source: E. coli BL21 (DE3), in lysate; also purified (commercial GST purification kit)
binds: His-FLNAC [1] | His-FLNBC | His-FLNCC

B2: GST-PC2C (domain or fragment, human, UniProt Q13563 682-968, looked up)
chain: DTYSEVKSDLAQQKAEMELSDLIRKGYHKALVKLKLKKNTVDDISESLRQGGGKLNFDELRQDLKGKGHTDAEIEAIFTKYDQDGDQELTEHEHQQMRDDLEKEREDLDLDHSSLPRPMSSRSFPRSLDDSEEDDDEDSGHSSRRRGSISSGVSYEEFQVLVRRVDRMEHSIGSIVSKIDAVIVKLEIMERAKLKRREVLGRLLDGVAEDERLGRDSEIHREQMERLVREELERWESDDAASQISHGLGTPVGLNGQPRPRSSRPSSSQSTEGMEGAGGNGSSNVHV
notes: Polycystin-2, human, C-terminus PC2C, amino acids 682-968; in pGEX5X; also called GST-tagged PC2C; source: E. coli BL21 (DE3), in lysate; also purified (commercial GST purification kit)
binds: His-FLNAC [2] | His-FLNBC | His-FLNCC
